In the Human Domainome abundance scans (Beltran et al. 2025):
± gives the uncertainty stated by the source.

B1: POU domain, class 3, transcription factor 2, residues 262 to 338; numbered along this chain, P20265 (parent)
chain: EDTPTSDDLEQFAKQFKQRRIKLGFTQADVGLALGTLYGNVFSQTTICRFEALQLSFKNMCKLKPLLNKWLEEADSS

Variants of: B1
Test: abundance fitness (aPCA) (normalised: wild type 0, dead -1); higher = more abundant; growth selection in yeast, the domain comes from the species named
Settings: Homo sapiens

Abundance fitness: each site, then its substitutions
T5: Y -0.337 ± 0.089 | V -0.108 ± 0.031 | Q -0.082 ± 0.041 | I -0.006 ± 0.075 | C 0.038 ± 0.046
E10: I -0.086 ± 0.069 | M 0.008 ± 0.038 | L 0.128 ± 0.03 | D -0.259 ± 0.057 | K 0.124 ± 0.037 | T -0.103 ± 0.044 | P -0.189 ± 0.051 | Y 0.054 ± 0.05 | C -0.01 ± 0.05 | H 0.093 ± 0.047 | G -0.223 ± 0.028 | N -0.204 ± 0.075 | V 0.038 ± 0.028 | S -0.028 ± 0.034 | A 0.006 ± 0.033
T3: K -0.023 ± 0.048 | E -0.218 ± 0.043 | G -0.342 ± 0.03 | I 0.094 ± 0.06 | Q -0.091 ± 0.045 | D -0.324 ± 0.06 | M 0.117 ± 0.049 | C 0.009 ± 0.06 | W -0.202 ± 0.042 | F -0.142 ± 0.1 | P -0.205 ± 0.054 | S -0.042 ± 0.036 | N -0.203 ± 0.05 | L -0.086 ± 0.037 | Y -0.029 ± 0.063 | A -0.365 ± 0.042 | R -0.086 ± 0.029
F12: G -0.582 ± 0.14 | C -0.555 ± 0.16 | Y -0.023 ± 0.17 | S -0.614 ± 0.12 | M -0.223 ± 0.14 | T -0.359 ± 0.15 | W -0.27 ± 0.18 | R -0.401 ± 0.11 | A -0.283 ± 0.13 | Q -0.828 ± 0.43 | I -0.66 ± 0.3 | V -0.442 ± 0.12 | D -0.561 ± 0.23 | L -0.776 ± 0.17
D2: C -0.124 ± 0.049 | T 0.039 ± 0.046 | R -0.03 ± 0.029 | P -0.153 ± 0.052 | I 0.023 ± 0.084 | V -0.176 ± 0.03 | K -0.031 ± 0.051 | H 0.015 ± 0.051 | E -0.047 ± 0.033 | Q 0.054 ± 0.039 | F -0.133 ± 0.073 | S 0.013 ± 0.04
E1: W -0.191 ± 0.084 | Y -0.177 ± 0.18 | L -0.109 ± 0.065 | N 0.124 ± 0.21 | S -0.164 ± 0.076 | Q -0.088 ± 0.12 | F 0.231 ± 0.27 | C -0.035 ± 0.15 | I -0.066 ± 0.17 | D -0.014 ± 0.089 | P 0.085 ± 0.28 | M 0.05 ± 0.066 | G -0.031 ± 0.037 | A -0.108 ± 0.058 | T -0.006 ± 0.14 | K -0.105 ± 0.18
S6: I 0.011 ± 0.052 | G -0.05 ± 0.025 | T 0.099 ± 0.038 | C 0.058 ± 0.042 | K 0.091 ± 0.033 | P 0.059 ± 0.041 | V 0.062 ± 0.027 | D -0.092 ± 0.042 | A 0.108 ± 0.028 | E -0.038 ± 0.032 | N -0.032 ± 0.049 | Q 0.124 ± 0.035 | H 0.265 ± 0.068 | M 0.148 ± 0.04 | W 0.098 ± 0.03 | Y 0.126 ± 0.057
L9: R -0.716 ± 0.047 | S -0.564 ± 0.049 | D -0.497 ± 0.078 | E -0.797 ± 0.093 | Q -0.53 ± 0.061 | V -0.107 ± 0.03 | K -0.606 ± 0.077 | W -0.396 ± 0.037 | A -0.491 ± 0.041 | T -0.289 ± 0.048 | I 0.074 ± 0.047 | N -0.394 ± 0.084 | P -0.483 ± 0.067 | C -0.246 ± 0.052 | H -0.352 ± 0.069 | Y -0.457 ± 0.083 | G -0.605 ± 0.05
Q11: R 0.001 ± 0.028 | I -0.063 ± 0.089 | N 0.025 ± 0.078 | C -0.141 ± 0.052 | L -0.04 ± 0.034 | W -0.196 ± 0.033 | M 0.035 ± 0.046 | D -0.114 ± 0.066 | S -0.046 ± 0.035 | V -0.015 ± 0.028 | G -0.103 ± 0.027 | Y -0.024 ± 0.063 | A 0.016 ± 0.038 | H 0.017 ± 0.073 | T -0.049 ± 0.046 | K 0 ± 0.047 | F -0.062 ± 0.068 | P -0.629 ± 0.08
P4: R -0.027 ± 0.033 | L 0.164 ± 0.036 | D 0.029 ± 0.057 | F 0.149 ± 0.11 | K 0.063 ± 0.052 | S -0.018 ± 0.039 | M 0.068 ± 0.053 | Y -0.102 ± 0.12 | E 0.002 ± 0.045 | A -0.03 ± 0.036 | G -0.01 ± 0.035 | H 0.075 ± 0.06 | V 0.061 ± 0.034 | Q 0.053 ± 0.052 | W 0.091 ± 0.044 | I 0.096 ± 0.08 | C 0.108 ± 0.062 | N -0.095 ± 0.079
D7: G 0.064 ± 0.12 | E -0.087 ± 0.13 | S 0.054 ± 0.45 | V 0.021 ± 0.094 | R 0.031 ± 0.22 | A -0.154 ± 0.1 | W 0.143 ± 0.17 | K 0.029 ± 0.4 | L -0.434 ± 0.31 | P -0.143 ± 0.3 | Q 0.211 ± 0.17
A13: F -0.84 ± 0.2 | K -0.606 ± 0.11 | E -0.645 ± 0.11 | I -0.12 ± 0.061 | H -0.544 ± 0.094 | G -0.605 ± 0.051 | D -0.865 ± 0.14 | C -0.156 ± 0.048
